# In patent US8470780B2, “Methods and compositions related to targeting wounds, regenerating tissue, and tumors” (Sanford-Burnham Medical Research Institute, priority 2006, dated 2013):
# Legend:
# CHO-K cells = assay: CHO-K cell proliferation with decorins; type: cell-based, Chinese hamster; conditions: 0.3 μg/ml/day of decorins
# Protocol: The effect of decorin preparations on CHO-K cell proliferation was determined as described previously (Yamaguchi 1990; Yamaguchi 1988). The cells were grown in media containing fetal bovine serum that had been dialyzed in a dialysis cassette (Pierce, Rockford, Ill.). The cells were plated in duplicate at a density of 2×10^4 cells per well in 24-well plates and cultured in 600 μl of culture media. Half of the medium was replaced daily with fresh medium containing decorin. Cells were collected by trypsinization, washed and resuspended in 1 ml of PBS containing 2 μg/ml of propidium iodide (PI) and 20,000 CountBright counting beads (Invitrogen, Carlsbad, Calif.), and analyzed by counting 1,000 beads in FACS. Cell number was also determined by hemocytometer.
# [1] = system: full thickness skin wounds; assay: Accumulation of intravenously injected decorins in wound tissue (anti-6-histidine tag staining); type: in vivo, mice; conditions: daily intravenous injections Days 3-5; evaluated Day 5
# Protocol: Mice with full thickness skin wounds, received daily intravenous injections as indicated on Days 3-5 after the wounding (n=4 per group, 2 wounds per animal). On Day 5, the presence of decorins was evaluated with anti-6-histidine tag antibody (which stains brown) by examining two sections from each wound.
# Six 8-week-old male BALB/c mice were anesthetized with intraperitoneally-injected 2.5% avertin Skin was shaved, cleaned, and disinfected with betadine and 70% alcohol. All animal experiments received approval from the IACUC of Burnham Institute for Medical Research. Treatment trials were conducted on mice that had circular, 8 mm-diameter, full thickness (including panniculus carnosus muscle) excision wounds in the dorsal skin. […]
# (§1) The treatments were started three days after wounding and consisted of daily tail vein injections. […] The ratio was reversed from Day 7 based on previously determined homing profiles of CRK and CAR phage to wounds at different time-points. The wounds were inspected and photographed daily, and scored for complete re-epithelialization. […]
# Frozen sections were fixed in acetone for 10 min and pre-incubated with 0.5% blocking reagent for 1 hr (NEN Life Sciences, Boston, Mass.). […] The primary antibodies were detected with corresponding secondary antibodies, and each staining experiment included slides stained with species-matched immunoglobulins as negative controls. […]
# [2] = system: full thickness excision wounds in the dorsal skin; assay: Skin wound healing treatment with decorins; type: in vivo, mice
# Protocol: Next, the effect of the homing peptide decorins on wound healing was examined. The daily dose of 40 μg/day was chosen based on previous decorin studies (Seidler 2006; Yang 1999). The dose was doubled on Days 4-6, coincident with the peak in TGF-β expression in wounds (Brunner 2004; Yang 1999). The treatments were started on Day 3 after wounding, when granulation tissue first forms in wounds (Brunner 2004), and continued for 7,9, or 11 days in three independent treatment experiments. Several parameters commonly used to assess wound repair and scarring were measured (Ashcroft 1999; Cheon 2006; Shah 1995). […]
# as §1
# Image analysis and quantification of granulation tissue/wound area, and hyperproliferative epidermis were done using ImageJ program (NIH, Bethesda, […].). The wounds were cut in the middle, one section from each side of the wound was evaluated, and the average of these two values was used in the analysis. The length of hyperproliferative epidermis and size of the wound tissue were determined from the Masson trichrome stained tissue sections. […]
molecule,measurement,setting,value
"decorin: recombinant his-tagged human decorin, small leucine-rich chondroitin sulfate proteoglycan (protein, UniProt P07585 31-359, looked up, His-tag, recombinant his-tagged human decorin, small leucine-rich chondroitin sulfate proteoglycan) Decorin: DEASGIGPEVPDDRDFEPSLGPVCPFRCQCHLRVVQCSDLGLDKVPKDLPPDTTLLDLQNNKITEIKDGDFKNLKNLHALILVNNKISKVSPGAFTPLVKLERLYLSKNQLKELPEKMPKTLQELRAHENEITKVRKVTFNGLNQMIVIELGTNPLKSSGIENGAFQGMKKLSYIRIADTNITSIPQGLPPSLTELHLDGNKISRVDAASLKGLNNLAKLGLSFNSISAVDNGSLANTPHLRELHLDNNKLTRVPGGLAEHKYIQVVYLHNNNISVVGSSDFCPPGHNTKKASYSGVSLFSNPVQYWEIQPSTFRCVYVRSAIQLGNYK",inhibition of CHO-K cell proliferation,CHO-K cells,inhibited the proliferation of the CHO-K cells at high concentrations
same,decorin staining in skeletal muscle underlying the skin wounds,[1],No decorin-staining
same,decorin staining in wounds,[1],weakly positive for decorin staining
same,change in granulation tissue/scar area,[2]; Day 14 after wounding,no statistically significant changes
same,prevention of scar formation,[2]; equivalent doses,inactive
